For two molecules, 90 nM mfBCMA.mmh Bind (RU) results are on record in patent US20220306758A1.

This experiment has as its target monkey BCMA-MMH (monkey BCMA with C-terminal myc-myc-hexahistidine tag) (monkey). The experiment in a line: SPR, Biacore, mAb captured by anti-hFc, 25 C. (Surface plasmon resonance follows binding to a sensor surface in real time, without labels.)

Chain of monkey BCMA-MMH (monkey BCMA with C-terminal myc-myc-hexahistidine tag) (monkey) (chain, as listed by the source limits assumed): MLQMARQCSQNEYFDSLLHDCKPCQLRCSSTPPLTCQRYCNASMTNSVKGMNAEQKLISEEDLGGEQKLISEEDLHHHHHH

B1: mAb16747 (REGN4515) (antibody, V domains shown)
VH: QVQLVESGGGLVKPGGSLRLSCAASGFTFSDYYISWIRQAPGKGLEWVSYISSSGSSIKYADSVKGRFTISRDNAKNSLYLQMNSLRAEDTAVYYCAREGGNYGMDVWGQGTTVTVSS
VL: DIQMTQSPSSVSASVGDRVTITCRASQGINNWLVWYQQKPGKAPKLLIYAATSLQSGVPSRFSGSGSGTDFTLTISSLQPEDFATYYCQQANSFPPTFGQGTKLEIK
Take B1: the 90 nM mfBCMA.mmh Bind (RU) was 1.9 RU.

B2: mAb16732 (REGN4514) (antibody, V domains shown)
VH: EVQLVESGGGLVQPGRSLRLSCAASGFTFDDYAMHWVRQAPGKGLEWVSGISWNSGNMGYADSVKGRFTISRDNAKNSLFLQMHSLRAEDTAFYYCAKVRLTAFDFWGQGTLVTVSS
VL: DIQMTQSPSSLSASVGDRVTITCRTSQSIGNYLNWFQQKPGKAPKLLIYTASSLQNGVPSRFTGSGSGTDFTLTISSLQPEDFVIYYCQQSFSTPYTFGQGTKLEIK
Take B2: the 90 nM mfBCMA.mmh Bind (RU) was found to be 1.1 RU.
